Measurements taken from the supplement of paper PMC9112550, “Optimization of the antimicrobial peptide Bac7 by deep mutational scanning” (BMC Biology, 2022).

What follows are sequences tested on Escherichia coli TOP10 (assay: shrunken log2 fold change of peptide-encoding DNA abundance (4.5 h post-induction vs induction); higher = less antimicrobial activity (less host growth inhibition)). Details: time post-induction: 4.5 h; library: site-saturation at positions 5, 18, 19, 20.
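Further: peptides expressed intracellularly from a pBAD plasmid library in pooled LB shake-flask culture, induced with 0.3% L-arabinose, DNA abundance read by NGS, three biological replicates, DESeq2 with apeglm shrinkage.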

Row | Sequence | shrunken log2 fold change
1 | RRIRCRPPRLPRPRPRPPCKPRP | -0.189
2 | RRIRCRPPRLPRPRPRPPCMPRP | -0.159
3 | RRIRCRPPRLPRPRPRPPCVPRP | 0.0597
4 | RRIRCRPPRLPRPRPRPPDKPRP | 0.0264
5 | RRIRCRPPRLPRPRPRPPDVPRP | 0.156
6 | RRIRCRPPRLPRPRPRPPGQPRP | 0.494
7 | RRIRCRPPRLPRPRPRPPHHPRP | 0.352
8 | RRIRCRPPRLPRPRPRPPHVPRP | 0.385
9 | RRIRCRPPRLPRPRPRPPIAPRP | 1.41
10 | RRIRCRPPRLPRPRPRPPIIPRP | -0.294
11 | RRIRCRPPRLPRPRPRPPILPRP | -0.501
12 | RRIRCRPPRLPRPRPRPPIPPRP | 0.31
13 | RRIRCRPPRLPRPRPRPPKCPRP | 0.203
14 | RRIRCRPPRLPRPRPRPPKQPRP | 0.123
15 | RRIRCRPPRLPRPRPRPPLHPRP | 0.135
16 | RRIRCRPPRLPRPRPRPPLWPRP | 0.32
17 | RRIRCRPPRLPRPRPRPPMMPRP | -0.0549
18 | RRIRCRPPRLPRPRPRPPMNPRP | -0.0519
19 | RRIRCRPPRLPRPRPRPPMRPRP | 0.945
20 | RRIRCRPPRLPRPRPRPPNRPRP | 0.444
21 | RRIRCRPPRLPRPRPRPPPVPRP | 1.24
22 | RRIRCRPPRLPRPRPRPPQTPRP | 0.665
23 | RRIRCRPPRLPRPRPRPPRAPRP | 0.934
24 | RRIRCRPPRLPRPRPRPPRIPRP | 0.48
25 | RRIRCRPPRLPRPRPRPPRTPRP | 0.818

Row | Sequence | shrunken log2 fold change
26 | RRIRCRPPRLPRPRPRPPVDPRP | 0.787
27 | RRIRCRPPRLPRPRPRPPWMPRP | 0.248
28 | RRIRCRPPRLPRPRPRPPYFPRP | -0.07
29 | RRIRCRPPRLPRPRPRPPYHPRP | -0.334
30 | RRIRCRPPRLPRPRPRPQCDPRP | -0.264
31 | RRIRCRPPRLPRPRPRPQCTPRP | -0.654
32 | RRIRCRPPRLPRPRPRPQDFPRP | 0.0295
33 | RRIRCRPPRLPRPRPRPQECPRP | -0.0139
34 | RRIRCRPPRLPRPRPRPQEDPRP | -0.0835
35 | RRIRCRPPRLPRPRPRPQKNPRP | -0.281
36 | RRIRCRPPRLPRPRPRPQKRPRP | 0.0237
37 | RRIRCRPPRLPRPRPRPQLYPRP | -0.236
38 | RRIRCRPPRLPRPRPRPQMIPRP | -1.55
39 | RRIRCRPPRLPRPRPRPQPMPRP | -0.0366
40 | RRIRCRPPRLPRPRPRPQPWPRP | 0.125
41 | RRIRCRPPRLPRPRPRPQRLPRP | 0.44
42 | RRIRCRPPRLPRPRPRPQSAPRP | -0.0724
43 | RRIRCRPPRLPRPRPRPQSWPRP | 0.69
44 | RRIRCRPPRLPRPRPRPQTNPRP | -0.374
45 | RRIRCRPPRLPRPRPRPQVVPRP | -0.266
46 | RRIRCRPPRLPRPRPRPQYFPRP | -0.252
47 | RRIRCRPPRLPRPRPRPQYQPRP | -0.697
48 | RRIRCRPPRLPRPRPRPRDPPRP | 0.864
49 | RRIRCRPPRLPRPRPRPREEPRP | 1.43
50 | RRIRCRPPRLPRPRPRPREGPRP | 1.09

Row | Sequence | shrunken log2 fold change
51 | RRIRCRPPRLPRPRPRPRFQPRP | 0.234
52 | RRIRCRPPRLPRPRPRPRFVPRP | 0.15
53 | RRIRCRPPRLPRPRPRPRFWPRP | 0.167
54 | RRIRCRPPRLPRPRPRPRGEPRP | 0.435
55 | RRIRCRPPRLPRPRPRPRHIPRP | -0.28
56 | RRIRCRPPRLPRPRPRPRHMPRP | -0.185
57 | RRIRCRPPRLPRPRPRPRHNPRP | -0.374
58 | RRIRCRPPRLPRPRPRPRHTPRP | -0.0438
59 | RRIRCRPPRLPRPRPRPRIKPRP | 0.0662
60 | RRIRCRPPRLPRPRPRPRKPPRP | 0.218
61 | RRIRCRPPRLPRPRPRPRMKPRP | 0.0252
62 | RRIRCRPPRLPRPRPRPRMRPRP | 0.542
63 | RRIRCRPPRLPRPRPRPRNSPRP | -0.113
64 | RRIRCRPPRLPRPRPRPRNWPRP | 0.366
65 | RRIRCRPPRLPRPRPRPRVMPRP | 0.278
66 | RRIRCRPPRLPRPRPRPRVTPRP | 0.23
67 | RRIRCRPPRLPRPRPRPRYCPRP | -0.654
68 | RRIRCRPPRLPRPRPRPRYIPRP | -0.035
69 | RRIRCRPPRLPRPRPRPSAHPRP | -0.0707
70 | RRIRCRPPRLPRPRPRPSAWPRP | 0.0978
71 | RRIRCRPPRLPRPRPRPSAYPRP | -0.406
72 | RRIRCRPPRLPRPRPRPSCAPRP | -0.0944
73 | RRIRCRPPRLPRPRPRPSCDPRP | -0.0533
74 | RRIRCRPPRLPRPRPRPSCFPRP | -0.205
75 | RRIRCRPPRLPRPRPRPSDQPRP | -0.0132

Row | Sequence | shrunken log2 fold change
76 | RRIRCRPPRLPRPRPRPSDTPRP | -0.134
77 | RRIRCRPPRLPRPRPRPSEHPRP | -0.236
78 | RRIRCRPPRLPRPRPRPSFPPRP | -0.608
79 | RRIRCRPPRLPRPRPRPSGWPRP | 0.0712
80 | RRIRCRPPRLPRPRPRPSHGPRP | -0.33
81 | RRIRCRPPRLPRPRPRPSHNPRP | -0.628
82 | RRIRCRPPRLPRPRPRPSHPPRP | -0.0807
83 | RRIRCRPPRLPRPRPRPSKQPRP | -0.209
84 | RRIRCRPPRLPRPRPRPSLWPRP | -0.0313
85 | RRIRCRPPRLPRPRPRPSMKPRP | -0.567
86 | RRIRCRPPRLPRPRPRPSNLPRP | -0.425
87 | RRIRCRPPRLPRPRPRPSNPPRP | 0.442
88 | RRIRCRPPRLPRPRPRPSRVPRP | 0.247
89 | RRIRCRPPRLPRPRPRPSSEPRP | -0.284
90 | RRIRCRPPRLPRPRPRPSSRPRP | -0.459
91 | RRIRCRPPRLPRPRPRPSTQPRP | -0.495
92 | RRIRCRPPRLPRPRPRPSVKPRP | -0.765
93 | RRIRCRPPRLPRPRPRPSWHPRP | -0.488
94 | RRIRCRPPRLPRPRPRPTAGPRP | 0.411
95 | RRIRCRPPRLPRPRPRPTAPPRP | 0.826
96 | RRIRCRPPRLPRPRPRPTATPRP | 0.299
97 | RRIRCRPPRLPRPRPRPTCWPRP | 0.15
98 | RRIRCRPPRLPRPRPRPTDNPRP | -0.58
99 | RRIRCRPPRLPRPRPRPTDPPRP | 0.102
100 | RRIRCRPPRLPRPRPRPTEQPRP | -0.304

Row | Sequence | shrunken log2 fold change
101 | RRIRCRPPRLPRPRPRPTERPRP | 0.211
102 | RRIRCRPPRLPRPRPRPTFTPRP | -0.416
103 | RRIRCRPPRLPRPRPRPTGCPRP | -0.0358
104 | RRIRCRPPRLPRPRPRPTGLPRP | 0.106
105 | RRIRCRPPRLPRPRPRPTGQPRP | 0.123
106 | RRIRCRPPRLPRPRPRPTHDPRP | 0.302
107 | RRIRCRPPRLPRPRPRPTHGPRP | 0.000601
108 | RRIRCRPPRLPRPRPRPTHSPRP | 0.288
109 | RRIRCRPPRLPRPRPRPTICPRP | -0.142
110 | RRIRCRPPRLPRPRPRPTIDPRP | 0.0362
111 | RRIRCRPPRLPRPRPRPTIYPRP | -0.644
112 | RRIRCRPPRLPRPRPRPTKEPRP | -0.0808
113 | RRIRCRPPRLPRPRPRPTKFPRP | -0.305
114 | RRIRCRPPRLPRPRPRPTKKPRP | -0.000922
115 | RRIRCRPPRLPRPRPRPTLGPRP | 0.168
116 | RRIRCRPPRLPRPRPRPTLMPRP | -0.0222
117 | RRIRCRPPRLPRPRPRPTPCPRP | 0.281
118 | RRIRCRPPRLPRPRPRPTPRPRP | 0.987
119 | RRIRCRPPRLPRPRPRPTQQPRP | -0.0719
120 | RRIRCRPPRLPRPRPRPTRFPRP | 0.696
121 | RRIRCRPPRLPRPRPRPTRLPRP | 0.558
122 | RRIRCRPPRLPRPRPRPTRSPRP | 0.643
123 | RRIRCRPPRLPRPRPRPTTQPRP | 0.0242
124 | RRIRCRPPRLPRPRPRPVDAPRP | 0.323
125 | RRIRCRPPRLPRPRPRPVDVPRP | -0.375

Row | Sequence | shrunken log2 fold change
126 | RRIRCRPPRLPRPRPRPVECPRP | -0.142
127 | RRIRCRPPRLPRPRPRPVGKPRP | 0.0374
128 | RRIRCRPPRLPRPRPRPVGMPRP | 0.0711
129 | RRIRCRPPRLPRPRPRPVHRPRP | -0.319
130 | RRIRCRPPRLPRPRPRPVIFPRP | -0.408
131 | RRIRCRPPRLPRPRPRPVIWPRP | 0.0816
132 | RRIRCRPPRLPRPRPRPVLPPRP | 2
133 | RRIRCRPPRLPRPRPRPVLRPRP | 0.183
134 | RRIRCRPPRLPRPRPRPVMKPRP | -0.342
135 | RRIRCRPPRLPRPRPRPVNAPRP | -0.0831
136 | RRIRCRPPRLPRPRPRPVNIPRP | -0.971
137 | RRIRCRPPRLPRPRPRPVRKPRP | 0.0744
138 | RRIRCRPPRLPRPRPRPVSFPRP | -0.228
139 | RRIRCRPPRLPRPRPRPVSLPRP | -0.379
140 | RRIRCRPPRLPRPRPRPVTNPRP | -0.0299
141 | RRIRCRPPRLPRPRPRPVTVPRP | -0.484
142 | RRIRCRPPRLPRPRPRPVTWPRP | -0.417
143 | RRIRCRPPRLPRPRPRPVVTPRP | -0.0488
144 | RRIRCRPPRLPRPRPRPWAAPRP | -0.0941
145 | RRIRCRPPRLPRPRPRPWALPRP | 0.0591
146 | RRIRCRPPRLPRPRPRPWCIPRP | -0.308
147 | RRIRCRPPRLPRPRPRPWDWPRP | 0.313
148 | RRIRCRPPRLPRPRPRPWFAPRP | -0.183
149 | RRIRCRPPRLPRPRPRPWGAPRP | 0.0457
150 | RRIRCRPPRLPRPRPRPWHRPRP | 0.0363
